Measured values published in the Human Domainome abundance scans (Beltran et al. 2025).
± gives the uncertainty stated by the source.

B1: Transcriptional regulator ERG, residues 117 to 197; numbered along this chain, P11308 (parent)
chain: NMTTNERRVIVPADPTLWSTDHVRQWLEWAVKEYGLPDVNILLFQNIDGKELCKMTKDDFQRLTPSYNADILLSHLHYLRE

Variants of: B1
Test: abundance fitness (aPCA) (normalised: wild type 0, dead -1); higher = more abundant; growth selection in yeast, the domain comes from the species named
Details: Homo sapiens

Variant | abundance fitness
NMTTNERRVIVPADPTLWSTDHVRQWLEWAVKEYGLPDVNILLFQNIDGKELCKMTKDDFQRLTPPYNADILLSHLHYLRE [S66P] | 0.03 ± 0.1
NMTTNERRVIVPADPTLWSTDHVRQWLEWAVKEYGLPDVNILLFQNIDGKELCKMTKDDFQRLTPHYNADILLSHLHYLRE [S66H] | -0.107 ± 0.13
NMTTNERRVIVPADPTLWSTDHVRQWLEWAVKEYGLPDVNILLFQNIDGKELCKMTKDDFQRLTPAYNADILLSHLHYLRE [S66A] | 0.058 ± 0.063
NMTTNERRVIVPADPTLWSTDHVRQWLEWAVKEYGLPDVNILLFQNIDGKELCKMTKDDFQRLTPCYNADILLSHLHYLRE [S66C] | -0.005 ± 0.14
NMTTNERRVIVPADPTLWSTDHVRQWLEWAVKEYGLPDVNILLFQNIDGKELCKMTKDDFQRLTPWYNADILLSHLHYLRE [S66W] | -0.28 ± 0.076
NMTTNERRVIVPADPTLWSTDHVRQWLEWAVKEYGLPDVNILLFQNIDGKELCKMTKDDFQRLTPNYNADILLSHLHYLRE [S66N] | 0.11 ± 0.13
NMTTNERRVIVPADPTLWSTDHVRQWLEWAVKEYGLPDVNILLFQNIDGKELCKMTKDDFQRLTPQYNADILLSHLHYLRE [S66Q] | -0.012 ± 0.075
NMTTNERRVIVPADPTLWSTDHVRQWLEWAVKEYGLPDVNILLFQNIDGKELCKMTKDDFQRLTPTYNADILLSHLHYLRE [S66T] | -0.12 ± 0.098
NMTTNERRVIVPADPTLWSTDHVRQWLEWAVKEYGLPDVNILLFQNIDGKELCKMTKDDFQRLTPMYNADILLSHLHYLRE [S66M] | -0.295 ± 0.098
NMTTNERRVIVPADPTLWSTDHVRQWLEWAVKEYGLPDVNILLFQNIDGKELCKMTKDDFQRLTPEYNADILLSHLHYLRE [S66E] | 0.03 ± 0.069
NMTTNERRVIVPADPTLWSTDHVRQWLEWAVKEYGLPDVNILLFQNIDGKELCKMTKDDFQRLTPVYNADILLSHLHYLRE [S66V] | -0.117 ± 0.061
NMTTNERRVIVPADPTLWSTDHVRQWLEWAVKEYGLPDVNILLFQNIDGKELCKMTKDDFQRLTPKYNADILLSHLHYLRE [S66K] | -0.056 ± 0.071
NMTTNERRVIVPADPTLWSTDHVRQWLEWAVKEYGLPDVNILLFQNIDGKELCKMTKDDFQRLTPIYNADILLSHLHYLRE [S66I] | -0.178 ± 0.11
NMTTNERRVIVPADPTLWSTDHVRQWLEWAVKEYGLPDVNILLFQNIDGKELCKMTKDDFQRLTPGYNADILLSHLHYLRE [S66G] | -0.025 ± 0.047
NMTTNERRVIVPADPTLWSTDHVRQWLEWAVKEYGLPDVNILLFQNIDGKELCKMTKDDFQRLTNSYNADILLSHLHYLRE [P65N] | -0.271 ± 0.25
NMTTNERRVIVPADPTLWSTDHVRQWLEWAVKEYGLPDVNILLFQNIDGKELCKMTKDDFQRLTRSYNADILLSHLHYLRE [P65R] | -0.017 ± 0.046
NMTTNERRVIVPADPTLWSTDHVRQWLEWAVKEYGLPDVNILLFQNIDGKELCKMTKDDFQRLTTSYNADILLSHLHYLRE [P65T] | 0.02 ± 0.093

Variant | abundance fitness
NMTTNERRVIVPADPTLWSTDHVRQWLEWAVKEYGLPDVNILLFQNIDGKELCKMTKDDFQRLTLSYNADILLSHLHYLRE [P65L] | -0.146 ± 0.11
NMTTNERRVIVPADPTLWSTDHVRQWLEWAVKEYGLPDVNILLFQNIDGKELCKMTKDDFQRLTSSYNADILLSHLHYLRE [P65S] | 0.044 ± 0.076
NMTTNERRVIVPADPTLWSTDHVRQWLEWAVKEYGLPDVNILLFQNIDGKELCKMTKDDFQRLTWSYNADILLSHLHYLRE [P65W] | -0.109 ± 0.077
NMTTNERRVIVPADPTLWSTDHVRQWLEWAVKEYGLPDVNILLFQNIDGKELCKMTKDDFQRLTASYNADILLSHLHYLRE [P65A] | 0.025 ± 0.052
NMTTNERRVIVPADPTLWSTDHVRQWLEWAVKEYGLPDVNILLFQNIDGKELCKMTKDDFQRLTFSYNADILLSHLHYLRE [P65F] | 0.342 ± 0.29
NMTTNERRVIVPADPTLWSTDHVRQWLEWAVKEYGLPDVNILLFQNIDGKELCKMTKDDFQRLTQSYNADILLSHLHYLRE [P65Q] | -0.265 ± 0.12
NMTTNERRVIVPADPTLWSTDHVRQWLEWAVKEYGLPDVNILLFQNIDGKELCKMTKDDFQRLTHSYNADILLSHLHYLRE [P65H] | 0.135 ± 0.22
NMTTNERRVIVPADPTLWSTDHVRQWLEWAVKEYGLPDVNILLFQNIDGKELCKMTKDDFQRLTGSYNADILLSHLHYLRE [P65G] | -0.004 ± 0.036
NMTTNERRVIVPADPTLWSTDHVRQWLEWAVKEYGLPDVNILLFQNIDGKELCKMTKDDFQRLTISYNADILLSHLHYLRE [P65I] | -0.449 ± 0.27
NMTTNERRVIVPADPTLWSTDHVRQWLEWAVKEYGLPDVNILLFQNIDGKELCKMTKDDFQRLTCSYNADILLSHLHYLRE [P65C] | 0.051 ± 0.087
NMTTNERRVIVPADPTLWSTDHVRQWLEWAVKEYGLPDVNILLFQNIDGKELCKMTKDDFQRLTESYNADILLSHLHYLRE [P65E] | -0.088 ± 0.057
NMTTNERRVIVPADPTLWSTDHVRQWLEWAVKEYGLPDVNILLFQNIDGKELCKMTKDDFQRLTYSYNADILLSHLHYLRE [P65Y] | 0.109 ± 0.28
NMTTNERRVIVPADPTLWSTDHVRQWLEWAVKEYGLPDVNILLFQNIDGKELCKMTKDDFQRLTKSYNADILLSHLHYLRE [P65K] | -0.107 ± 0.09
NMTTNERRVIVPADPTLWSTDHVRQWLEWAVKEYGLPDVNILLFQNIDGKELCKMTKDDFQRLTMSYNADILLSHLHYLRE [P65M] | 0.048 ± 0.077
NMTTNERRVIVPADPTLWSTDHVRQWLEWAVKEYGLPDVNILLFQNIDGKELCKMTKDDFQRLTDSYNADILLSHLHYLRE [P65D] | 0.07 ± 0.089
NMTTNERRVIVPADPTLWSTDHVRQWLEWAVKEYGLPDVNILLFQNIDGKELCKMTKDDFQRLTPSYCADILLSHLHYLRE [N68C] | -0.212 ± 0.1
NMTTNERRVIVPADPTLWSTDHVRQWLEWAVKEYGLPDVNILLFQNIDGKELCKMTKDDFQRLTPSYAADILLSHLHYLRE [N68A] | 0.013 ± 0.047
